For two molecules, FRET efficiency results are on record in paper PMC4234293, “Galactosyltransferases from Arabidopsis thaliana in the biosynthesis of type II arabinogalactan: molecular interaction enhances enzyme activity” (BMC Plant Biology, 2014).

The labels stand for the following.
B1: AtGALT29A (Arabidopsis thaliana beta-galactosyltransferase 1 from family GT29, At1g08280), C-terminal mCer3-HA or YFP-HA fusion (enzyme, UniProt Q9SGD2 1-398, looked up)
chain: MKRSVRPLFSALLFAFFAATLICRVAIRRSSFSFASAIAELGSSGLMTEDIVFNETLLEFAAIDPGEPNFKQEVDLISDYDHTRRSHRRHFSSMSIRPSEQQRRVSRDIASSSKFPVTLRSSQAYRYWSEFKRNLRLWARRRAYEPNIMLDLIRLVKNPIDVHNGVVSISSERYLSCAVVGNSGTLLNSQYGDLIDKHEIVIRLNNAKTERFEKKVGSKTNISFINSNILHQCGRRESCYCHPYGETVPIVMYICQPIHVLDYTLCKPSHRAPLLITDPRFDVMCARIVKYYSVKKFLEEKKAKGFVDWSKDHEGSLFHYSSGMQAVMLAVGICEKVSVFGFGKLNSTKHHYHTNQKAELKLHDYEAEYRLYRDLENSPRAIPFLPKEFKIPLVQVYH
notes: AtGALT29A, Arabidopsis thaliana, locus At1g08280; full-length cDNA without stop codon; Two copies that differ only in the tag were used in the FRET experiments: mCer3-HA (donor) and YFP-HA (acceptor); They are kept as one molecule so that the homodimer row has the protein with itself; The label in each row tells which copy was meant; also called AtGALT29A-mCer3; AtGALT29A-YFP; source: N. …
B2: AtGALT31A (Arabidopsis thaliana beta-galactosyltransferase 1 from family GT31, At1g32930), C-terminal mCer3-HA or YFP-HA fusion (enzyme, UniProt Q9MAP8 1-399, looked up)
chain: MGMGRYQKSATSGVSARWVFVLCISSFLLGVLVVNRLLASFETVDGIERASPEQNDQSRSLNPLVDCESKEGDILSRVSHTHDVIKTLDKTISSLEVELATARAARSDGRDGSPAVAKTVADQSKIRPRMFFVMGIMTAFSSRKRRDSIRGTWLPKGDELKRLETEKGIIMRFVIGHSSSPGGVLDHTIEAEEEQHKDFFRLNHIEGYHELSSKTQIYFSSAVAKWDADFYIKVDDDVHVNLGMLGSTLARHRSKPRVYIGCMKSGPVLAQKGVKYHEPEYWKFGEEGNKYFRHATGQIYAISKDLATYISVNRQLLHKYANEDVSLGSWFIGLDVEHIDDRSLCCGTPLDCEWKGQAGNPCAASFDWSCSGICKSVDRMLEVHQRCGEGDGAIWHSSF
notes: AtGALT31A, Arabidopsis thaliana, locus At1g32930; full-length cDNA without stop codon; Two copies that differ only in the tag were used in the FRET experiments: mCer3-HA (donor) and YFP-HA (acceptor); They are kept as one molecule so that the homodimer row has the protein with itself; also called AtGALT31A-mCer3; AtGALT31A-YFP; source: N. benthamiana leaves, Agrobacterium-infiltrated, transient …

Common to all, as to assay: FRET or BRET; acceptor photobleaching FRET, mCer3 donor and YFP acceptor, co-expressed in N. benthamiana leaf epidermal cells; Golgi ROIs, pixel-by-pixel FRET efficiency
Data set [1] has as its target B2. The settings on record: partners not purified.
Data set [2] deals with the molecule itself.
The target of data set [3] is B1. The settings on record: partners not purified.

As to B1, the FRET efficiency in data set [1] turned out to be 18%; in data set [2], 34%.
As for B2, the FRET efficiency in data set [3] is 29%; in data set [2], 19%.
